Assay results as given in article PMC3136212, “Identification of the DNA-Binding Domains of Human Replication Protein A That Recognize G-Quadruplex DNA”.

How the values were obtained:
RPA-AB [1] = target: T1, RPA-AB (human, UniProt P27694 181-441); assay: FP; 500 mM NaCl; FP: 0.060 uM FAM-oligo, 10-1500 mM NaCl, room temperature; CD: Buffer A 25 mM Tris pH 7.5, 2 mM MgCl2, 6% glycerol, 1 mM DTT, 100 (or 10) mM NaCl, room temperature; settings: protein: recombinant, tags: N-terminal His6, thrombin-cleaved, label: 5' 6-FAM
RPA-CDE-core [2] = target: T2, RPA-CDE-core (human, UniProt P27694;P15927;P35244 436-616;43-171;1-121); assay: as above; settings: protein: recombinant, tags: N-terminal His, thrombin-cleaved, copies: 1;1;1, label: 5' 6-FAM
RPA-AB [3] = target: T1, RPA-AB; assay: FP; 1500 mM NaCl; FP: 0.060 uM FAM-oligo, 10-1500 mM NaCl, room temperature; CD: Buffer A 25 mM Tris pH 7.5, 2 mM MgCl2, 6% glycerol, 1 mM DTT, 100 (or 10) mM NaCl, room temperature; parameters: unit not given here; settings: protein: recombinant; tags: N-terminal His6, thrombin-cleaved; label: 5' 6-FAM
RPA-AB [4] = target: T1, RPA-AB; assay: FP; 1250 mM NaCl; FP: 0.060 uM FAM-oligo, 10-1500 mM NaCl, room temperature; CD: Buffer A 25 mM Tris pH 7.5, 2 mM MgCl2, 6% glycerol, 1 mM DTT, 100 (or 10) mM NaCl, room temperature; parameters: unit not given here; settings: protein: recombinant; tags: N-terminal His6, thrombin-cleaved; label: 5' 6-FAM
RPA-CDE-core [5] = target: T2, RPA-CDE-core; assay: as above; parameters: unit not given here; settings: protein: recombinant; tags: N-terminal His, thrombin-cleaved; copies: 1;1;1; label: 5' 6-FAM
RPA-AB [6] = target: T1, RPA-AB; assay: FP; 100 mM NaCl; FP: 0.060 uM FAM-oligo, 10-1500 mM NaCl, room temperature; CD: Buffer A 25 mM Tris pH 7.5, 2 mM MgCl2, 6% glycerol, 1 mM DTT, 100 (or 10) mM NaCl, room temperature; parameters: unit not given here; settings: protein: recombinant, tags: N-terminal His6, thrombin-cleaved, label: 5' 6-FAM
RPA-CDE-core [7] = target: T2, RPA-CDE-core; assay: as above; parameters: unit not given here; settings: protein: recombinant, tags: N-terminal His, thrombin-cleaved, copies: 1;1;1, label: 5' 6-FAM
RPA-C [8] = target: T3, RPA-C (human, UniProt P27694 432-595, V435T;W442Q;V465T;V469T;F523S;F567S;I571T); assay: FP; 10 mM NaCl; FP: 0.060 uM FAM-oligo, 10-1500 mM NaCl, room temperature; CD: Buffer A 25 mM Tris pH 7.5, 2 mM MgCl2, 6% glycerol, 1 mM DTT, 100 (or 10) mM NaCl, room temperature; parameters: unit not given here; settings: protein: recombinant, tags: N-terminal His, thrombin-cleaved, label: 5' 6-FAM
RPA-CDE-core [9] = target: T2, RPA-CDE-core; assay: as above; parameters: unit not given here; settings: protein: recombinant, tags: N-terminal His, thrombin-cleaved, copies: 1;1;1, label: 5' 6-FAM
RPA-DE [10] = target: T4, RPA-DE (human, UniProt P15927;P35244 43-171;1-121); assay: as above; settings: protein: recombinant; tags: N-terminal His, thrombin-cleaved; copies: 1;1; label: 5' 6-FAM
[11] = target: T5, RPA (full-length heterotrimer RPA1/RPA2/RPA3) (human, UniProt P27694;P15927;P35244 1-616;1-270;1-121); assay: FP; 500 mM NaCl; stoichiometric; FP: 0.060 uM FAM-oligo, 10-1500 mM NaCl, room temperature; CD: Buffer A 25 mM Tris pH 7.5, 2 mM MgCl2, 6% glycerol, 1 mM DTT, 100 (or 10) mM NaCl, room temperature; parameters: unit not given here; settings: protein: recombinant; copies: 1;1;1; label: 5' 6-FAM
[12] = target: T5, RPA (full-length heterotrimer …); assay: FP; 500 mM NaCl; FP: 0.060 uM FAM-oligo, 10-1500 mM NaCl, room temperature; CD: Buffer A 25 mM Tris pH 7.5, 2 mM MgCl2, 6% glycerol, 1 mM DTT, 100 (or 10) mM NaCl, room temperature; settings: protein: recombinant; copies: 1;1;1; label: 5' 6-FAM
RPA-C [13] = target: T3, RPA-C; assay: FP; 10 mM NaCl; FP: 0.060 uM FAM-oligo, 10-1500 mM NaCl, room temperature; CD: Buffer A 25 mM Tris pH 7.5, 2 mM MgCl2, 6% glycerol, 1 mM DTT, 100 (or 10) mM NaCl, room temperature; settings: protein: recombinant; tags: N-terminal His, thrombin-cleaved; label: 5' 6-FAM
RPA-C [14] = target: T3, RPA-C; assay: CD titration; 10 mM NaCl; 254 nm peak decreases, 292 nm unchanged; FP: 0.060 uM FAM-oligo, 10-1500 mM NaCl, room temperature; CD: Buffer A 25 mM Tris pH 7.5, 2 mM MgCl2, 6% glycerol, 1 mM DTT, 100 (or 10) mM NaCl, room temperature; settings: protein: recombinant; tags: N-terminal His, thrombin-cleaved; intramolecular G4
RPA-CDE-core [15] = target: T2, RPA-CDE-core; assay: CD titration; 100 mM NaCl; unfolds G4, complete at protein:DNA 2; FP: 0.060 uM FAM-oligo, 10-1500 mM NaCl, room temperature; CD: Buffer A 25 mM Tris pH 7.5, 2 mM MgCl2, 6% glycerol, 1 mM DTT, 100 (or 10) mM NaCl, room temperature; settings: protein: recombinant; tags: N-terminal His, thrombin-cleaved; copies: 1;1;1; intramolecular G4
RPA-DE [16] = target: T4, RPA-DE; assay: CD titration; 10 mM NaCl; stabilizes antiparallel G4; FP: 0.060 uM FAM-oligo, 10-1500 mM NaCl, room temperature; CD: Buffer A 25 mM Tris pH 7.5, 2 mM MgCl2, 6% glycerol, 1 mM DTT, 100 (or 10) mM NaCl, room temperature; settings: protein: recombinant; tags: N-terminal His, thrombin-cleaved; copies: 1;1; intramolecular G4
[17] = target: T5, RPA (full-length heterotrimer …); assay: competition; FP, 0-10 uM unlabeled vs 60 nM FAM-Comp; FP: 0.060 uM FAM-oligo, 10-1500 mM NaCl, room temperature; CD: Buffer A 25 mM Tris pH 7.5, 2 mM MgCl2, 6% glycerol, 1 mM DTT, 100 (or 10) mM NaCl, room temperature; settings: protein: recombinant; copies: 1;1;1
RPA-CDE-core [18] = target: T2, RPA-CDE-core; assay: as above; settings: protein: recombinant; tags: N-terminal His, thrombin-cleaved; copies: 1;1;1
[19] = target: T5, RPA (full-length heterotrimer …); assay: FP; 1500 mM NaCl; FP: 0.060 uM FAM-oligo, 10-1500 mM NaCl, room temperature; CD: Buffer A 25 mM Tris pH 7.5, 2 mM MgCl2, 6% glycerol, 1 mM DTT, 100 (or 10) mM NaCl, room temperature; parameters: unit not given here; settings: protein: recombinant; copies: 1;1;1; label: 5' 6-FAM; intramolecular G4, antiparallel at 100 mM NaCl, mixed/parallel at 10 mM NaCl
[20] = target: T5, RPA (full-length heterotrimer …); assay: FP; 500 mM NaCl; stoichiometric (equilibrium only at 1250 mM); FP: 0.060 uM FAM-oligo, 10-1500 mM NaCl, room temperature; CD: Buffer A 25 mM Tris pH 7.5, 2 mM MgCl2, 6% glycerol, 1 mM DTT, 100 (or 10) mM NaCl, room temperature; settings: protein: recombinant; copies: 1;1;1; label: 5' 6-FAM; intramolecular G4, antiparallel at 100 mM NaCl, mixed/parallel at 10 mM NaCl
[21] = target: T5, RPA (full-length heterotrimer …); assay: FP; 1250 mM NaCl; FP: 0.060 uM FAM-oligo, 10-1500 mM NaCl, room temperature; CD: Buffer A 25 mM Tris pH 7.5, 2 mM MgCl2, 6% glycerol, 1 mM DTT, 100 (or 10) mM NaCl, room temperature; parameters: unit not given here; settings: protein: recombinant; copies: 1;1;1; label: 5' 6-FAM; intramolecular G4, antiparallel at 100 mM NaCl, mixed/parallel at 10 mM NaCl
RPA-DE [22] = target: T4, RPA-DE; assay: FP; 10 mM NaCl; FP: 0.060 uM FAM-oligo, 10-1500 mM NaCl, room temperature; CD: Buffer A 25 mM Tris pH 7.5, 2 mM MgCl2, 6% glycerol, 1 mM DTT, 100 (or 10) mM NaCl, room temperature; parameters: unit not given here; settings: protein: recombinant; tags: N-terminal His, thrombin-cleaved; copies: 1;1; label: 5' 6-FAM; intramolecular G4, antiparallel at 100 mM NaCl, mixed/parallel at 10 mM NaCl
[23] = intramolecular G4, antiparallel at 100 mM NaCl, mixed/parallel at 10 mM NaCl

T4 sequence (P15927 43-171, chain 1 of 2): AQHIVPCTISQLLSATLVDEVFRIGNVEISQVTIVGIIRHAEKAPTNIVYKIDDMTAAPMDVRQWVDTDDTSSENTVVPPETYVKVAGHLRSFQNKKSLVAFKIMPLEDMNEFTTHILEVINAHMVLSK
T4 sequence (P35244 whole entry, chain 2 of 2): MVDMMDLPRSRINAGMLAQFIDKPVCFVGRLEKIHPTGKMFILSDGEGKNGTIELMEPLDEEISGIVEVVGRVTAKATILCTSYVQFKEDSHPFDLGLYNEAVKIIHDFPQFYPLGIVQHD
T2 sequence (P27694 436-616, chain 1 of 3): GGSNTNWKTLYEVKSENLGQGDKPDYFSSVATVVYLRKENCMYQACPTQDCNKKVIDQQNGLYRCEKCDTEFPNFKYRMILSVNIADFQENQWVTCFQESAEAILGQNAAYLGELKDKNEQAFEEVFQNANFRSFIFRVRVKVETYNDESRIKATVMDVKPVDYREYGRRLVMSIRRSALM
T2 sequence (P15927 43-171, chain 2 of 3): as the sequence (P15927 43-171, chain 1 of 2) above
T2 sequence (P35244 whole entry, chain 3 of 3): as the sequence (P35244 whole entry, chain 2 of 2) above
T3 sequence (P27694 432-595 V435T/W442Q/V465T/V469T/F523S/F567S/I571T): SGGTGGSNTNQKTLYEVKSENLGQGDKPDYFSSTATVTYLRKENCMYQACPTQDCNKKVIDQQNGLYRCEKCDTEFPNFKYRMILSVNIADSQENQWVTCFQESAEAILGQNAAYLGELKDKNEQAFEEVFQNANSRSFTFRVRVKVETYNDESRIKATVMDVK
T1 sequence (P27694 181-441): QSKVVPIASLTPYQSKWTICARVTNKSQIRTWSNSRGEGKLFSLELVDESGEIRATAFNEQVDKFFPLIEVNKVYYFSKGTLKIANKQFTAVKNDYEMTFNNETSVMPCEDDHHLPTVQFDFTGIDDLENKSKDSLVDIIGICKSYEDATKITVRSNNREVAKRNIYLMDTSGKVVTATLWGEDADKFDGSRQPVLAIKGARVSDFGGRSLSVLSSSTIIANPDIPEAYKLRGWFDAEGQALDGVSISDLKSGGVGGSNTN
T5 sequence (P27694 whole entry, chain 1 of 3): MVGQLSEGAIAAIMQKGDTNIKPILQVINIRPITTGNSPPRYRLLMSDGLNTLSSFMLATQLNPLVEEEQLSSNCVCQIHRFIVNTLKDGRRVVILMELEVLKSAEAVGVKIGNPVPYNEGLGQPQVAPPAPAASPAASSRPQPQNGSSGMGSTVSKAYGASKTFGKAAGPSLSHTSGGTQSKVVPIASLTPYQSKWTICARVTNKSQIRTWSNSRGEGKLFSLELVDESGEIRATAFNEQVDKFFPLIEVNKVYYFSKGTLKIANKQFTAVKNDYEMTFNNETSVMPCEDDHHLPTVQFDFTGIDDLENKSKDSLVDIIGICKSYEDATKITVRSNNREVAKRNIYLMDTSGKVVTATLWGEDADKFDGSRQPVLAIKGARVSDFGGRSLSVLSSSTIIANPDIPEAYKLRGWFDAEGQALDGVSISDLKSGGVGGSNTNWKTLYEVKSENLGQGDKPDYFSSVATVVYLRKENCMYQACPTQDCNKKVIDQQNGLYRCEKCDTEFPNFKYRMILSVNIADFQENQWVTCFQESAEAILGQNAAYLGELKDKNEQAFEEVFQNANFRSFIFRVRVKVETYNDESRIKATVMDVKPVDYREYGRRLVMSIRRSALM
T5 sequence (P15927 whole entry, chain 2 of 3): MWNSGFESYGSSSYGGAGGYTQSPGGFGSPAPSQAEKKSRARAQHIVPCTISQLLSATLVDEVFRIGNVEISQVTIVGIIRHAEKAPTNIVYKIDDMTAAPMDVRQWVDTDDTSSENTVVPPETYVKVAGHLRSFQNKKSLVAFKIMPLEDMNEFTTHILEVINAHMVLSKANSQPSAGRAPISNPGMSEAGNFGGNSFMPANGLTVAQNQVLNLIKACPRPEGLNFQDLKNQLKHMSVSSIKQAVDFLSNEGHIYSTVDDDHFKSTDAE
T5 sequence (P35244 whole entry, chain 3 of 3): as the sequence (P35244 whole entry, chain 2 of 2) above

B1: Anti (Comp) (ssDNA)
DNA: ATCCCCTTCCCAACCTCACCCAA
modifications: 18-carbon spacer (sp18) at 5' end
Work on B1 yielded a Kd (RPA-AB [1]) of 1.79, a Kd (RPA-CDE-core [2]) of 0.75 and a Kd (RPA-AB [3]) of 2.45. It also gave a Kd (RPA-AB [4]) of 2.65, a Kd (RPA-CDE-core [5]) of 2.81 and a Kd (RPA-AB [6]) of 0.66. It also gave a Kd (RPA-CDE-core [7]) of 0.42, a Kd (RPA-C [8]) of 3.32 and a Kd (RPA-CDE-core [9]) of 0.22. The binding result (RPA-DE [10]) was “no binding” and the Kd [11] was roughly 0.06.

B2: polyA (ssDNA)
DNA: AAAAAAAAAAAAAAAAAAAAAAA
modifications: 18-carbon spacer (sp18) at 5' end
Work on B2 yielded a Kd [12] of 0.17, a Kd (RPA-AB [6]) of 1.83 and a Kd (RPA-CDE-core [7]) of 5.88. For the same binder, the Kd (RPA-CDE-core [9]) was 0.53, the binding result (RPA-C [13]) was “no binding” and the binding result (RPA-DE [10]) was “no binding”.

B3: Gq23 (CD, unlabeled) (structured_DNA)
DNA: TAGGGGAAGGGTTGGAGTGGGTT
B3: binds (RPA-C [14]); binds (RPA-CDE-core [15]); binds (RPA-DE [16]).

B4: Comp competitor (unlabeled) (ssDNA)
DNA: ATCCCCTTCCCAACCTCACCCAA
B4: binds [17]; binds (RPA-CDE-core [18]).

B5: Gq23 (FP) (structured_DNA)
DNA: TAGGGGAAGGGTTGGAGTGGGTT
modifications: 18-carbon spacer (sp18) at 5' end
Binder B5 has a Kd (RPA-AB [1]; [23]) of 3.28, a Kd (RPA-CDE-core [2]; [23]) of 11.9 µM and a Kd [19] of 0.85. The Kd [20] was ~0.04 0.02, the Kd [21] was 0.37 and the Kd (RPA-AB [6]; [23]) was 0.44. The Kd (RPA-CDE-core [7]; [23]) was 0.55, the Kd (RPA-C [8]; [23]) was 3.62 and the Kd (RPA-CDE-core [9]; [23]) was 0.16. The Kd (RPA-DE [22]) was 6.68.
